Measured values published in the supplement of paper PMC9732359.
± gives the uncertainty stated by the source.

Assay: protein stability index of a GFP-peptide fusion (yeast GPS) (PSI 1-4); higher = more stable; sorted into four equal gates, so the index is relative within each strain
Procedure, shortened: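 The protein stability index of a peptide was calculated by multiplying its read frequency in each gate by that gate's number and adding the products. The peptides were tiled 17-residue stretches of yeast proteins, fused downstream of GFP on a Cherry-expressing plasmid and carried in yeast as a pooled library. Mid-log cultures in leucine-free medium were sorted into four equal gates by GFP/Cherry ratio, and each gate's plasmids were PCR-amplified and Illumina-sequenced.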

Sequence | protein stability index (doa10∆) | protein stability index (pdr5∆) | protein stability index (san1∆) | protein stability index (ubr1∆)
NILLRERDSYKLLASTE [YIL149C/MLP2] | 2.59 ± 0.058 | 2.53 ± 0.055 | 2.49 ± 0.063 | 2.4 ± 0.055
LIKTLSTLHMLGYTHIA [RPP1] | 2.49 ± 0.081 | 2.65 ± 0.087 | 2.62 ± 0.099 | 2.65 ± 0.071
NANTGFSFGGTQTGQNT [YGL172W/NUP49] | 3.42 ± 0.14 | 3.21 ± 0.11 | 3.23 ± 0.086 | 3.49 ± 0.11
AMREVNDEKRVKEEYDI [YIL149C/MLP2] | 2.62 ± 0.25 | 2.57 ± 0.17 | – | –
QLNEKLVGRLRKCETQK [YCS4] | 2.03 ± 0.086 | 1.44 ± 0.062 | 2.22 ± 0.1 | 2 ± 0.061
SNTSTSKMLDAASSQVS [SNF12] | 2.51 ± 0.052 | 2.8 ± 0.042 | 2.5 ± 0.12 | 2.83 ± 0.051
EEAYDNPHDTLNRIKKY [PRP8] | 3.42 ± 0.13 | 3.2 ± 0.093 | 2.27 ± 0.17 | 3.4 ± 0.085
KLVRDAFALAKEKAPTI [RPT5] | 2.56 ± 0.072 | 2.49 ± 0.09 | 2.94 ± 0.083 | 3.08 ± 0.083
DVKSSLSKVFSDVLFEF [YJL039C/NUP192] | 2.82 ± 0.12 | 3.28 ± 0.071 | 2.58 ± 0.1 | 2.89 ± 0.053
VYTAIYNYCVNKSRSSG [CDC53] | 2.48 ± 0.074 | 2.62 ± 0.057 | 2.61 ± 0.053 | 2.71 ± 0.043
ELTKNPNSNVELAGGNA [SMC1] | – | 3.01 ± 0.15 | 3.32 ± 0.086 | 3.37 ± 0.12
LANWFLEVYASGNPNAT [YML031W/NDC1] | 2.03 ± 0.055 | 2.17 ± 0.046 | 2.37 ± 0.075 | 1.69 ± 0.045
NNNNNNNDDNGNNNNNN [MED2] | 3.277 ± 0.029 | 3.284 ± 0.023 | 3.327 ± 0.017 | 3.286 ± 0.023
IVKTTTKQRLDAYYDLE [PRP8] | 2.77 ± 0.092 | 3.28 ± 0.069 | 3.07 ± 0.05 | 3.19 ± 0.044
KDLQENLLVLRGKNEII [RPO21] | 1.31 ± 0.077 | 1.52 ± 0.056 | 1.6 ± 0.12 | 1.58 ± 0.071
QRTLSKSFYSTATGAAS [CYT1] | 1.98 ± 0.06 | 2.39 ± 0.054 | 2.43 ± 0.068 | 2.39 ± 0.048
NIQHLLYGKRFFPYYVH [PRE7] | 1.25 ± 0.031 | 1.45 ± 0.037 | 1.36 ± 0.091 | 1.3 ± 0.039
ESNVNDSDMLTKSHNTV [NUT1] | 3.08 ± 0.1 | 3.25 ± 0.095 | 3.28 ± 0.086 | 3.43 ± 0.1
TVLETLLSDVNQNQRNV [SMC3] | 3.23 ± 0.13 | 2.94 ± 0.057 | 3.01 ± 0.085 | 3.02 ± 0.082
NFHNSKKRMNSNQERCH [RRI1] | 2.51 ± 0.062 | 2.51 ± 0.057 | 2.83 ± 0.071 | 2.99 ± 0.07
YPIYELLMSCPRLSHLS [GRR1] | 1.42 ± 0.056 | 1.4 ± 0.048 | 1.45 ± 0.14 | 1.39 ± 0.052
DGDASKPAFSFGAKPDE [YJL041W/NSP1] | 3.32 ± 0.058 | 3.25 ± 0.058 | 3.15 ± 0.036 | 3.42 ± 0.043
HRKHIAVLKKIQSKAVE [YCG1] | 2.55 ± 0.11 | 2.81 ± 0.097 | 2.69 ± 0.1 | 2.57 ± 0.064
NDIHLRFMRFLADRDEF [ECM29] | 2.44 ± 0.065 | 2.24 ± 0.059 | 2.21 ± 0.16 | 2.5 ± 0.038
MVGQQYSSAPLRTVKEV [RPO21] | – | 1.92 ± 0.27 | – | –
FEIIDEASKKSAVKPRP [FAS1] | 3.21 ± 0.13 | 3.28 ± 0.14 | 3.45 ± 0.064 | 3.3 ± 0.066
QANPTEESISKFPDMGS [RPB5] | 3.23 ± 0.082 | 3.26 ± 0.076 | 3.04 ± 0.074 | 3.26 ± 0.087

Sequence | protein stability index (doa10∆) | protein stability index (pdr5∆) | protein stability index (san1∆) | protein stability index (ubr1∆)
VSLQNFSSSVSLSYMAF [RRP40] | 2.22 ± 0.047 | 1.64 ± 0.041 | 1.76 ± 0.074 | 1.83 ± 0.04
MGAYKYLEELQRKKQSD [RPL15A] | – | 2.75 ± 0.28 | – | –
EQVLSAAATFPIAQPAT [RPL13A] | 2.66 ± 0.059 | 2.24 ± 0.057 | 1.74 ± 0.084 | 2.54 ± 0.043
NVKVIMATNRADTLDPA [RPT3] | 2.67 ± 0.1 | 2.07 ± 0.086 | 1.94 ± 0.22 | 2.44 ± 0.057
FVLLEIEPVTKVSSLKM [YCS4] | 2.34 ± 0.049 | 2.18 ± 0.066 | 2.48 ± 0.059 | 2.35 ± 0.054
IINFGEIEQNTELLDEF [RPN10] | 3.25 ± 0.1 | 3.42 ± 0.083 | 3.23 ± 0.07 | 3.17 ± 0.072
LREFRITHNTNITDNLF [GRR1] | 1.32 ± 0.15 | 1.28 ± 0.15 | – | 2.07 ± 0.11
TGANFDDVERGVSRQIA [REC8] | 3.49 ± 0.11 | 3.63 ± 0.17 | 3.32 ± 0.24 | 3.58 ± 0.12
WIKFDQELYNELCKKNE [RPN7] | 3.12 ± 0.13 | 3.05 ± 0.28 | 2.79 ± 0.17 | 3.1 ± 0.17
LCKTKMVCETDVPSEDD [RPO21] | 2.99 ± 0.071 | 3 ± 0.093 | 3.25 ± 0.074 | 2.52 ± 0.067
DTIMENPEPNKKNIQKA [IRR1] | 2.36 ± 0.25 | 2.84 ± 0.13 | 3.18 ± 0.2 | 2.99 ± 0.11
TQQPGTNSHYNNTNTDN [SNF2] | 3.17 ± 0.046 | 3.26 ± 0.04 | 3.21 ± 0.036 | 3.204 ± 0.028
LEGETDPLRIAMKELAE [RPO26] | 3.49 ± 0.21 | 3.34 ± 0.057 | 3.27 ± 0.1 | 3.36 ± 0.15
GSIRVHKSGKLSVKIGN [RPC53] | 1.27 ± 0.052 | 1.44 ± 0.047 | 1.75 ± 0.068 | 1.69 ± 0.04
ETTTEEDSENPSDWQRN [ITC1] | 3.31 ± 0.17 | 3.31 ± 0.095 | 3.06 ± 0.11 | 3.38 ± 0.083
VRIDLGTIDKLQLELTI [RPO31] | 1.99 ± 0.049 | 2.21 ± 0.052 | 2.5 ± 0.053 | 2.91 ± 0.042
SDSLGPDTSNEICDLAY [SRB2] | 2.95 ± 0.065 | 3.17 ± 0.064 | 3.29 ± 0.065 | 3.31 ± 0.049
EKVRDYENSISKDLRSV [IRR1] | 2.25 ± 0.093 | 1.98 ± 0.094 | 1.82 ± 0.082 | 2.03 ± 0.051
SEEPTDFGFDLDIEKEA [MCD1] | 2.77 ± 0.25 | – | – | 3.24 ± 0.14
DLNHVTEELQTQYATSQ [SMC2] | 3.11 ± 0.19 | 3.17 ± 0.12 | 3.16 ± 0.1 | 3.44 ± 0.2
PNVFDKDSYVRIANIEQ [YDL088C/ASM4] | 3 ± 0.093 | 3.09 ± 0.047 | 3.04 ± 0.07 | 3.22 ± 0.051
EDRNESVNIAFAISMGY [ECM29] | 3.02 ± 0.12 | 2.89 ± 0.074 | 2.88 ± 0.055 | 2.82 ± 0.07
RNSNPENTVGLISGAGA [RPN10] | 2.93 ± 0.11 | 2.81 ± 0.074 | 2.6 ± 0.067 | 2.06 ± 0.069
LISLIMTTWRKLYTKEL [YMR129W/POM152] | 2.35 ± 0.092 | 1.15 ± 0.093 | 1.42 ± 0.17 | 1.16 ± 0.044
TTPEKPEETPLEELAET [FAS2] | 3.28 ± 0.076 | 3.09 ± 0.074 | 3.28 ± 0.051 | 3.5 ± 0.051
KLHHDLKLCLGDHSSVP [YMR129W/POM152] | 2.83 ± 0.058 | 3.09 ± 0.054 | 2.95 ± 0.053 | 2.96 ± 0.042
ESVLPAARYDYAVAEQC [QCR2] | 3.15 ± 0.11 | 3.25 ± 0.11 | 2.97 ± 0.11 | 1.98 ± 0.06
